{"source": "the RNAGym collection of RNA variant scans (doi:10.7554/elife.90254)", "parents": {"B1": {"name": "LINE1-mini (parent)", "chain": "GGCAGAGCUCAACACAGCGUGGCAAAGUGGCUGUGGCUAGACUGCC"}}, "data": [{"variants_of": "B1", "test": "self-cleavage, relative activity (ratio to wild type); higher = more cleavage; in vitro, sequencing; the parent is a self-cleaving ribozyme", "values": [{"variant": "C13G G29U", "self-cleavage": 0.33}, {"variant": "G7C G35U", "self-cleavage": 0.18}, {"variant": "A16C G44A", "self-cleavage": 0.05}, {"variant": "U28A G35U", "self-cleavage": 0.18}, {"variant": "G27A G29A", "self-cleavage": 0.65}, {"variant": "G1A A12C", "self-cleavage": 0.04}, {"variant": "A25C G36U", "self-cleavage": 0.11}, {"variant": "G1U G30C", "self-cleavage": 0.27}, {"variant": "C31G U34G", "self-cleavage": 0.04}, {"variant": "A16C C37G", "self-cleavage": 0.02}, {"variant": "A6U U34A", "self-cleavage": 0.06}, {"variant": "G19C U20G", "self-cleavage": 0.4}, {"variant": "G5U C18U", "self-cleavage": 0.1}, {"variant": "G2C A4C", "self-cleavage": 0.11}, {"variant": "A26C G33A", "self-cleavage": 0.17}, {"variant": "A11U A25C", "self-cleavage": 0.11}, {"variant": "A16U G19U", "self-cleavage": 0.2}, {"variant": "G36A", "self-cleavage": 0.2}, {"variant": "G1A G33C", "self-cleavage": 0.05}, {"variant": "C15A G27U", "self-cleavage": 0.09}, {"variant": "G36C U43C", "self-cleavage": 0.04}, {"variant": "A6C A25G", "self-cleavage": 0.18}, {"variant": "A14G G40A", "self-cleavage": 0.1}, {"variant": "A14G G40C", "self-cleavage": 0.09}, {"variant": "C8G C23U", "self-cleavage": 0.1}, {"variant": "G17U U34G", "self-cleavage": 0.04}, {"variant": "C18U G35A", "self-cleavage": 0.1}, {"variant": "C8A U9G", "self-cleavage": 0.03}, {"variant": "C15G G22A", "self-cleavage": 0.15}, {"variant": "U20A A26U", "self-cleavage": 0.91}, {"variant": "C18G C31G", "self-cleavage": 0.04}, {"variant": "A4C U34C", "self-cleavage": 0.15}, {"variant": "C37G G44A", "self-cleavage": 0.04}, {"variant": "C15U U28C", "self-cleavage": 1.52}, {"variant": "G17C C45G", "self-cleavage": 0.56}, {"variant": "A6C C23A", "self-cleavage": 0.5}, {"variant": "C3U A11C", "self-cleavage": 0.06}, {"variant": "A12C G44A", "self-cleavage": 0.03}, {"variant": "C18G G22A", "self-cleavage": 0.82}, {"variant": "C18G G22C", "self-cleavage": 0.12}, {"variant": "U9G A24U", "self-cleavage": 0.18}, {"variant": "A16C G29A", "self-cleavage": 0.57}, {"variant": "C37A U38C", "self-cleavage": 0.03}, {"variant": "C15A G35C", "self-cleavage": 0.05}, {"variant": "G33A U38G", "self-cleavage": 0.03}, {"variant": "A6U U38C", "self-cleavage": 0.27}, {"variant": "C18G A39G", "self-cleavage": 0.07}, {"variant": "G21A C23A", "self-cleavage": 1.07}, {"variant": "C8G C13A", "self-cleavage": 0.11}, {"variant": "A4U U34A", "self-cleavage": 0.08}, {"variant": "G7U G22C", "self-cleavage": 0.04}, {"variant": "G5C A14C", "self-cleavage": 0.07}, {"variant": "U34G U43C", "self-cleavage": 0.07}, {"variant": "C10A G36U", "self-cleavage": 0.04}, {"variant": "A26G C31U", "self-cleavage": 0.15}, {"variant": "G7A C23U", "self-cleavage": 0.11}, {"variant": "G35C C42U", "self-cleavage": 0.05}, {"variant": "A25C G44C", "self-cleavage": 0.23}, {"variant": "C23G C46G", "self-cleavage": 0.6}, {"variant": "A11C C13U", "self-cleavage": 0.03}, {"variant": "G19C C46G", "self-cleavage": 0.23}, {"variant": "G17U U28G", "self-cleavage": 0.1}, {"variant": "G5U A24C", "self-cleavage": 0.08}, {"variant": "G5U G29U", "self-cleavage": 0.12}, {"variant": "A25U A41U", "self-cleavage": 0.6}, {"variant": "G40C U43A", "self-cleavage": 0.06}, {"variant": "G33C U34G", "self-cleavage": 0.07}, {"variant": "C3A A11U", "self-cleavage": 0.06}, {"variant": "G22A", "self-cleavage": 0.81}, {"variant": "G1U C23G", "self-cleavage": 0.24}, {"variant": "G5C C42A", "self-cleavage": 0.09}, {"variant": "A16C G30U", "self-cleavage": 0.05}, {"variant": "A11C G29A", "self-cleavage": 0.06}, {"variant": "G5A U38G", "self-cleavage": 0.02}, {"variant": "G2A C46G", "self-cleavage": 0.96}, {"variant": "G2A C46U", "self-cleavage": 0.87}, {"variant": "A11U A16U", "self-cleavage": 0.03}, {"variant": "A26U G29C", "self-cleavage": 0.35}, {"variant": "A26U G29U", "self-cleavage": 1.61}, {"variant": "A16U G21A", "self-cleavage": 0.23}, {"variant": "G33U C37A", "self-cleavage": 0.07}, {"variant": "G40A C45U", "self-cleavage": 0.16}, {"variant": "A6U G7U", "self-cleavage": 0.14}, {"variant": "G36C G40A", "self-cleavage": 0.09}, {"variant": "G35U G40A", "self-cleavage": 0.09}, {"variant": "C10A G30C", "self-cleavage": 0.08}, {"variant": "C10A C15U", "self-cleavage": 0.08}, {"variant": "C37G U43A", "self-cleavage": 0.07}, {"variant": "A4G C37G", "self-cleavage": 0.07}, {"variant": "A11G C18U", "self-cleavage": 0.04}, {"variant": "A6G G22U", "self-cleavage": 0.12}, {"variant": "U28G U32G", "self-cleavage": 0.24}, {"variant": "A16C G27C", "self-cleavage": 0.15}, {"variant": "G30C U43G", "self-cleavage": 0.02}, {"variant": "C3U G22U", "self-cleavage": 0.82}, {"variant": "U28G A39U", "self-cleavage": 0.56}, {"variant": "U34A U38G", "self-cleavage": 0.06}, {"variant": "G2A A12U", "self-cleavage": 0.41}, {"variant": "A16U G44A", "self-cleavage": 0.05}, {"variant": "G1U A41C", "self-cleavage": 0.05}, {"variant": "G27U G29U", "self-cleavage": 1.03}, {"variant": "C18U G30C", "self-cleavage": 1.82}, {"variant": "G19C A41G", "self-cleavage": 0.03}, {"variant": "A11U G30A", "self-cleavage": 0.17}, {"variant": "U20A A39G", "self-cleavage": 0.06}, {"variant": "C18G G40U", "self-cleavage": 0.06}, {"variant": "U20A A41U", "self-cleavage": 0.35}, {"variant": "G2C U34G", "self-cleavage": 0.12}, {"variant": "C18U G19C", "self-cleavage": 0.56}, {"variant": "A11C A39G", "self-cleavage": 0.03}, {"variant": "U28G G30U", "self-cleavage": 0.77}, {"variant": "U32C U38A", "self-cleavage": 0.37}, {"variant": "G33C G36A", "self-cleavage": 0.03}, {"variant": "U9A G29U", "self-cleavage": 0.15}, {"variant": "G7U U43A", "self-cleavage": 0.11}, {"variant": "C23G C31A", "self-cleavage": 0.09}, {"variant": "G22A G36U", "self-cleavage": 0.15}, {"variant": "A6G G27U", "self-cleavage": 0.08}, {"variant": "A25C A26C", "self-cleavage": 1.13}, {"variant": "U9C G35U", "self-cleavage": 0.03}, {"variant": "U9C G35C", "self-cleavage": 0.04}, {"variant": "A16C C42A", "self-cleavage": 0.05}, {"variant": "G21U A39C", "self-cleavage": 0.28}, {"variant": "C13G C15A", "self-cleavage": 0.1}, {"variant": "A12C C46G", "self-cleavage": 0.05}, {"variant": "A11C A16U", "self-cleavage": 0.02}, {"variant": "U43C G44A", "self-cleavage": 0.11}, {"variant": "A26C G40U", "self-cleavage": 0.09}, {"variant": "U9A C42U", "self-cleavage": 0.15}, {"variant": "A12U U43A", "self-cleavage": 0.04}, {"variant": "C3G U34C", "self-cleavage": 0.1}, {"variant": "C23G A39G", "self-cleavage": 0.09}, {"variant": "A4G G27U", "self-cleavage": 0.31}, {"variant": "C10G G33C", "self-cleavage": 0.02}, {"variant": "U20A U34G", "self-cleavage": 0.25}, {"variant": "G7A G30C", "self-cleavage": 0.42}, {"variant": "C8A A24U", "self-cleavage": 0.34}, {"variant": "G5U A25C", "self-cleavage": 0.05}, {"variant": "G5C A25U", "self-cleavage": 0.09}, {"variant": "G1U C3U", "self-cleavage": 0.27}, {"variant": "G27C C46U", "self-cleavage": 1.09}, {"variant": "A12C G19A", "self-cleavage": 0.02}, {"variant": "G21U C46G", "self-cleavage": 1.29}, {"variant": "G21U C46U", "self-cleavage": 1.13}, {"variant": "G2C A12U", "self-cleavage": 0.12}, {"variant": "U20G A39G", "self-cleavage": 0.07}, {"variant": "A24U G27C", "self-cleavage": 0.61}, {"variant": "G5A C8U", "self-cleavage": 0.44}, {"variant": "A4U A14C", "self-cleavage": 0.12}, {"variant": "G5C G30U", "self-cleavage": 0.17}, {"variant": "A12G C23A", "self-cleavage": 0.02}, {"variant": "G40U C45G", "self-cleavage": 0.14}, {"variant": "C3A G21C", "self-cleavage": 0.23}, {"variant": "G35A U38C", "self-cleavage": 0.06}, {"variant": "G35C C46U", "self-cleavage": 0.06}, {"variant": "C23A G44A", "self-cleavage": 0.61}, {"variant": "A26U C46U", "self-cleavage": 2.38}, {"variant": "G7C U9C", "self-cleavage": 0.03}, {"variant": "G21C G35C", "self-cleavage": 0.08}, {"variant": "C3A C42A", "self-cleavage": 0.33}, {"variant": "G36C C45G", "self-cleavage": 0.04}, {"variant": "C23U C46U", "self-cleavage": 1.39}, {"variant": "A26U U32G", "self-cleavage": 0.36}, {"variant": "G2A C10U", "self-cleavage": 0.41}, {"variant": "A6C C31G", "self-cleavage": 0.09}, {"variant": "C18G G29C", "self-cleavage": 0.49}, {"variant": "U20C G30C", "self-cleavage": 0.98}]}]}
